T1: MvaT-His (Pseudomonas aeruginosa (PAO1?)) (UniProt Q9HW86)
T1 sequence: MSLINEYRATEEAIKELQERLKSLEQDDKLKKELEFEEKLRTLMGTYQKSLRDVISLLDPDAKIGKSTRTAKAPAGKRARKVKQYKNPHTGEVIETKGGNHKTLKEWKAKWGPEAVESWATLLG

T2: LUZ24 gp4 (Mip) (Pseudomonas phage LUZ24) (UniProt A9J6U1)
T2 sequence: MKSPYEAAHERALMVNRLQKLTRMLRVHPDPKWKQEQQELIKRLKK

B1: MvaT (PA4315) prey fragment, amino acids 1-80 (domain or fragment)
chain: MSLINEYRATEEAIKELQERLKSLEQDDKLKKELEFEEKLRTLMGTYQKSLRDVISLLDPDAKIGKSTRTAKAPAGKRAR

What was measured:
[1] = target: T1, MvaT-His (Pseudomonas aeruginosa (PAO1?)); experiment: EMSA
[2] = target: T2, LUZ24 gp4 (Mip) (Pseudomonas phage LUZ24); experiment: EMSA
[3] = target: LUZ24 gp4 (yeast two-hybrid bait) (Pseudomonas aeruginosa phage LUZ24); experiment: two-hybrid; alpha-galactosidase activity of the yeast two-hybrid pairs, in milliunits per ml per cell, for a relative comparison of interaction strengths

| Molecule | binding [1] | binding [2] | α-Gal activity (milliunits per ml per cell) [3] |
| --- | --- | --- | --- |
| CATGAGGCCAGGACGTTGTTCATGAAAACCGAATAATCGTTTCGAATGATGGTTTGCAATTATTAATGTCGAATGGAATGAATGTGCCATATCTCCATAAATAAAAAGGAAGTTTGTCCAATACTTGAGAAACTACTTTAAGAAGGTTTTGTCGGTAGAAAGCGATCAATC (double strand) [ptxS upstream region 150 bp] | binds | no binding | – |
| B1 | – | – | 23.1 |

— paper PMC4635203
